This assay addresses Chloride Intracellular Channel 1 (CLIC1), human, with N-terminal twin strep tag (human) (UniProt O00299). The assay is described as follows: mass photometry.

What is called stoichiometry N is the number of molecules, sites or subunits per partner or assembly.

The substance “Chloride Intracellular Channel 1 (CLIC1), human, with N-terminal twin strep tag (from UniProt O00299 1-241) (natural protein)” had a stoichiometry N of 6.
